# Measured values reported in the supplement of paper PMC9170038.
# Test system: MS2 coat protein
# Assay: apparent KD of MS2 coat protein; designed switch direction (-1 OFF switch, 1 ON switch): 1; higher = weaker reporter binding
# Summary of the method: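 An oligonucleotide input, 200 uM small-molecule ligand, or no input was present during titration of SNAP-549-labelled MS2 coat protein, which was doubled from 0.7 or 1.5 nM to 3 µM. Designed RNA switches had been transcribed on Illumina chips by stalled E. coli RNA polymerase. Apparent KD per design is the median over clusters of curves fitted to normalised cluster fluorescence.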
# [1] = input ligand: microRNA oligo, concentration not stated
# [2] = Eterna round: R95, input ligand: FMN 200 uM
# [3] = Eterna round: R95, input ligand: microRNA oligo, concentration not stated
# [4] = Eterna round: R95, input ligand: none
Sequence,apparent KD of MS2 coat protein [1] [nM],apparent KD of MS2 coat protein (input ligand: FMN 200 uM) [nM],apparent KD of MS2 coat protein (input ligand: none) [nM],apparent KD of MS2 coat protein [2] [nM],apparent KD of MS2 coat protein [3] [nM],apparent KD of MS2 coat protein [4] [nM]
"AGGAAACAUGAGGAUCACCCAUGUAAAAAUAUGGGAGGAUAUGCGAAAAGAAACAAAGAAGCAGAAGGCCUAAGAA [75%, Ex5 sub 1, 7] (Eterna round: R96, puzzle: Same State 1)",85.7,–,–,–,–,–
"AGGAGACAUGAGGAUCACCCAUGUACUUCAUAAGGAGAGAACGAGGAUAUGUAGAGAGAGAGGGAACAGAAGGUGUGAGAGGAA [Default title] (Eterna round: R96, puzzle: Same State NG 3)",16.2,18.7,18.7,–,–,–
"AGGCUCAGACGAGGAUAUAUGUGGUCACAUGAGGAUCACCCAUGUCUCGAGCUUCGGCUCGAGGCAUAGAAGGUGUCUGAGCCA [SSNG2/5-C1] (Eterna round: R96, puzzle: Same State NG 2)",42.5,115,25.7,–,–,–
"AGGCUCAGAGCAGGAUAUAUGUGAUCACAUGAGGAUCACCCAUGUCUCGAGCUUCGGCUCGAGACAUAGAAGGGCUCUGAGCCA [SSNG2/3-B1] (Eterna round: R96, puzzle: Same State NG 2)",39.3,2490,28.3,–,–,–
AGGUGAUAUGGAAAGGAUAUACGGUUUAGGACAUGAGGAUCACCCAUGUGGAAGAUGGCGAGAGAGUAGAAGGUUCGAAAUUGGU [JR_SS@_Sub024] (puzzle: Same State 2),–,–,–,43.4,75,77.4
"AGUAGUUUAACAUGAGGAUCACCCAUGUAUUUUUCUGUAACCUAGGAUAUGGGCGUUGUAUUUAUCCAGAAGGAGGAUCGUUUA [JR_SSNG3_Sub048] (Eterna round: R96, puzzle: Same State NG 3)",28.3,30.3,31.1,–,–,–
"AGUAUACAUGAGGAUCACCCAUGUCUGUAACGGACAGGAUAUGCGUUGCAUCACUGUAAUGCAGAAGGGUCCUGUA [Same State 1 - Mod of JMF's solution 1 v.2] (Eterna round: R96, puzzle: Same State 1)",148,50.5,202,–,–,–
AGUAUACAUGAGGAUCACCCAUGUCUGUAACGGACAGGAUAUGCGUUGCAUCACUGUAAUGCAGAAGGGUCCUGUA [Same State 1 - Mod of JMF's solution 1 v.2] (puzzle: Same State 1),–,–,–,–,179,–
"AGUAUUUAUGCAGGAUAUGAUUAACAUGAGGAUCACCCAUGUGGUGUUGUGAGUAAGGAGAGUGAUCAGAAGGGCAUUUUUUUU [JMF's solution 74] (Eterna round: R96, puzzle: Same State NG 2)",324,512,380,–,–,–
AGUCCAGCCAAAGCUGGACAAAAGCAUGUACAUGAGGAUCACCCAUGUUCAUGUACAAGCUUUUUGCUCGUCUUAAA [Mat - hsa-mir-208a - Mod of JL - 56] (puzzle: Sensor for hsa-mir-208a),–,–,–,413,16.1,465
AGUCCAGCCUGAGCUGGACAAAAGCAUGUACAUGAGGAUCACCCAUGUCAUGUACAAGCUUUUUGCUCGACUUAAAA [Mat - hsa-mir-208a - Mod of JL - D10] (puzzle: Sensor for hsa-mir-208a),–,–,–,569,14.2,624
AGUCCAGCCUGAGCUGGACAAAAGCAUGUACAUGAGGAUCACCCAUGUCAUGUACAAGCUUUUUGCUCGUAUUAAUA [Mat - hsa-mir-208a - Mod of JL - D30] (puzzle: Sensor for hsa-mir-208a),–,–,–,491,12.7,528
AGUCCAGCCUGAGCUGGACAAAAGCAUGUACAUGAGGAUCACCCAUGUCAUGUACAAGCUUUUUGCUCGUCUUAUAA [Mat - hsa-mir-208a - Mod of JL - D25] (puzzle: Sensor for hsa-mir-208a),–,–,–,643,14.9,704
AGUCCAGCCUGAGCUGGACAAAAGCAUGUACAUGAGGAUCACCCAUGUCAUGUACAAGCUUUUUGUUCGUCUUAAAA [Zipper 46 - 12] (puzzle: Sensor for hsa-mir-208a),–,–,–,794,14.8,500
AGUCCAGCCUGAGCUGGACAAAAGCAUGUACAUGAGGAUCACCCAUGUCAUGUACAGGCUUUUUGCUCGUCUUAAAA [Zipper 46 - 8] (puzzle: Sensor for hsa-mir-208a),–,–,–,213,16.1,300
AGUCCAGCCUGAGCUGGACAAAAGCAUGUACAUGAGGAUCACCCAUGUUCAUGUACAAGCUUUUUGCUCGUCUAAAU [Mat - hsa-mir-208a - Mod of JL - 46] (puzzle: Sensor for hsa-mir-208a),–,–,–,449,15.5,682
AGUCCAGCCUGAGCUGGACAGAAGCAUGUACAUGAGGAUCACCCAUGUCAUGUACAAGCUUUUUGCUCGUCUUAAAA [Zipper 46 - 3] (puzzle: Sensor for hsa-mir-208a),–,–,–,422,15.9,586
"AGUCCAGCGAAAGCUGGACAAAAGCAUGUACAUGAGGAUCACCCAUGUUCAUGUACAAGCUUUUUGCUCGUCUUAAA [Mat - Sensor - JL mod - D95] (Eterna round: R96, puzzle: Sensor for hsa-mir-208a)",14.1,485,467,–,–,–
AGUCCAGCGAAAGCUGGACAAAAGCAUGUACAUGAGGAUCACCCAUGUUCAUGUACAAGCUUUUUGCUCGUCUUAAA [Zipper 52 - 13] (puzzle: Sensor for hsa-mir-208a),–,–,–,486,16.2,588
AGUCCAGCGAAAGCUGGACAAAAGCAUGUACAUGAGGAUCACCCAUGUUUAUGUACAAGCUUUUUGCUCGUUUUAAA [JL mod - D95 - 16] (puzzle: Sensor for hsa-mir-208a),–,–,–,365,13.1,433
"AGUCCUGCCUGAGCAGGACAAAAGCAUGUACAUGAGGAUCACCCAUGUCAUGUACAAGCUUUUUGCUCGUCUUAAUA [Mat - hsa-mir-208a - Mod of JL - D41] (Eterna round: R96, puzzle: Sensor for hsa-mir-208a)",13.7,624,735,–,–,–
AGUCCUGCCUGAGCAGGACAAAAGCAUGUACAUGAGGAUCACCCAUGUCAUGUACAAGCUUUUUGCUCGUCUUAAUA [Mat - hsa-mir-208a - Mod of JL - D41] (puzzle: Sensor for hsa-mir-208a),–,–,–,556,15.4,854
AGUGAACAUGAGGAUCACCCAUGUGAGAGAAGUGUAGGAUAUGUGAGAGGCGGAGGAGGGACAGAAGGACAUGGAG [JR_SS!_Sub075] (puzzle: Same State 1),–,–,–,38.7,42,48.5
AGUGAACAUGAGGAUCACCCAUGUGAGAGAAGUGUAGGAUAUGUGAGGAGCAGAGGAGGAACAGAAGGACAUGGAG [JR_SS!_Sub073] (puzzle: Same State 1),–,–,–,29,36.8,48.5
AGUGAAGAAGCUGAGGAUAUCGUAAGGAGGACAUGAGGAUCACCCAUGUGUGUGGAAUUGGAGGACGAGAAGGCAGAGGAGUGGG [JR_SS2_Sub057] (puzzle: Same State 2),–,–,–,39.3,42.6,22.7
"AGUUGUAAUACAGGAUAUAUAUUAUUUUUAUUUAUAGAAGGGUAAUCACAUGAGGAUCACCCAUGUAUAUACGAGGAAGAAGAG [JMF's solution 2] (Eterna round: R96, puzzle: Same State NG 1)",194,–,–,–,–,–
AGUUGUGGAAAACUAUAGCAAAAGUAUGUACAUGAGGAUCACCCAUGUCAUGUACAAGCUUUUUGCUCGUCUUAAAA [ak 4 mod of one Eli's designs.] (puzzle: Sensor for hsa-mir-208a),–,–,–,23,21,23.3
"AUAAAACACAUGAGGAUCACCCAUGUGGCCGAAGAAGGCACACAGGAUAUCAAGCAACUAAAGCUUGAGAAGGGUGAGACAAAA [Quistera] (Eterna round: R96, puzzle: Same State NG 3)",30.7,494,92.3,–,–,–
